Data from patent US20240052034A1.

Biological target: PD-1 on PD-1 reporter Jurkat cells (UniProt Q15116)
Experiment: cell-based or functional assay

Sequence of PD-1 on PD-1 reporter Jurkat cells (Q15116 25-288 limits assumed): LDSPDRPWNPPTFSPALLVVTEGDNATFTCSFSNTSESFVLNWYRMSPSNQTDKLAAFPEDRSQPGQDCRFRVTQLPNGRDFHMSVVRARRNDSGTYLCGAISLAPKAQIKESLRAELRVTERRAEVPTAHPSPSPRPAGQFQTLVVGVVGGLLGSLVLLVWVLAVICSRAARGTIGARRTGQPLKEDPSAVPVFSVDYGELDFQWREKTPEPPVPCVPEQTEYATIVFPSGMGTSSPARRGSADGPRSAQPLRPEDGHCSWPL

Substance: LY3462817 (antibody)
- EC50 of SHP-2 recruitment, PD-1 reporter Jurkat cells, Ig-tethered test article on anti-human IgG coated plates: 5.69 nM
